Laboratory results taken from patent US6541220 (GENERAL HOSPITAL, dated 2003).
No end group written: not given here.

T1: zebrafish PTH1R receptor, clone zPTH1R#29 (shorter 5' UT, 149 bp), transiently expressed in COS-7 cells (zebrafish (Danio rerio))
T1 construct: Full-length cDNA expressed on intact COS-7 cells; also called zPPR1#29; zPTH1R(FL)/pcDNAI/Amp
T1 chain: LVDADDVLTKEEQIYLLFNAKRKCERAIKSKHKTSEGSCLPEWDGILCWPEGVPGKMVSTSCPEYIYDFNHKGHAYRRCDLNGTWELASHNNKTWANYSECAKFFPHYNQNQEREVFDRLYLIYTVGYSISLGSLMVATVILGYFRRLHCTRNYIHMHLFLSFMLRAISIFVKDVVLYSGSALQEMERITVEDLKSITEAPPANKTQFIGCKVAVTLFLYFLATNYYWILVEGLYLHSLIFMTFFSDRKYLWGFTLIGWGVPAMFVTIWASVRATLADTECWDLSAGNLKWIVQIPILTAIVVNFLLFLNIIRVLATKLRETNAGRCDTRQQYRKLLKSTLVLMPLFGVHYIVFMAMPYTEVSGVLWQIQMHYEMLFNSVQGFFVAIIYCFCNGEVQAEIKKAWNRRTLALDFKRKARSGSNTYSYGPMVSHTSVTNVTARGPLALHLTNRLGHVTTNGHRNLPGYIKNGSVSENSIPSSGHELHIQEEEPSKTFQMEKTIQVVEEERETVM

T2: zebrafish PTH1R receptor, clone zPTH1R#25 (longer 5' UT, 391 bp), transiently expressed in COS-7 cells (zebrafish (Danio rerio))
T2 construct: only the 5' UT differs; also called zPPR1#25
T2 chain: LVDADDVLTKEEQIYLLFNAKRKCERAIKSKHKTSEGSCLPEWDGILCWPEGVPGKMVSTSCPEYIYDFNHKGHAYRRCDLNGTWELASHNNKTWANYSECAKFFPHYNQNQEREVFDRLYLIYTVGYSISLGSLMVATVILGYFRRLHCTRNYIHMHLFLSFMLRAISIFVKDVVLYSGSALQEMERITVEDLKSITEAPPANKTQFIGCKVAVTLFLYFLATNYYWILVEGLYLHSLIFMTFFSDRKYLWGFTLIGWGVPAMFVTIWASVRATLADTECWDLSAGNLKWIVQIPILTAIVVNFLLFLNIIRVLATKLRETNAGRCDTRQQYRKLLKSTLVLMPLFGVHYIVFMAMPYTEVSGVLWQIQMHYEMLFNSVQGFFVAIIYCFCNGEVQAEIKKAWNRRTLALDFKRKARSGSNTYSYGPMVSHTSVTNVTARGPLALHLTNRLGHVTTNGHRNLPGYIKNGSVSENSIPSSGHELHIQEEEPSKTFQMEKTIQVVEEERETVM

T3: zebrafish PTH3R receptor, transiently expressed in COS-7 cells (zebrafish (Danio rerio))
T3 construct: Full-length cDNA expressed on intact COS-7 cells; also called zPTH3R; zPPR3
T3 chain: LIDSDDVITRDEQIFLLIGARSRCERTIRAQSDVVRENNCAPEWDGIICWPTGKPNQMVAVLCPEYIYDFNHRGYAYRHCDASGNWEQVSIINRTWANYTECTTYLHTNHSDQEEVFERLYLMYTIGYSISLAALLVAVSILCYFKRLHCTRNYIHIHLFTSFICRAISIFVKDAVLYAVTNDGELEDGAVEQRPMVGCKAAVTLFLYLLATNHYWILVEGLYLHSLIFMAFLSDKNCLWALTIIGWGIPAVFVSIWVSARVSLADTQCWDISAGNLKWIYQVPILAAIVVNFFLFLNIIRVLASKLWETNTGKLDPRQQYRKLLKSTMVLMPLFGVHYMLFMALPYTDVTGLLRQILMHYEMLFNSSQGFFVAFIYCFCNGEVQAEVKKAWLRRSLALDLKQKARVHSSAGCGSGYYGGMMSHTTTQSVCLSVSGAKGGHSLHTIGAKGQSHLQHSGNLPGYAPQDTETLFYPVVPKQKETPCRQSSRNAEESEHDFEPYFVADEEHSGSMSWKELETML


Experiments:
[1] = target: T1, zebrafish PTH1R receptor, clone …; assay: competitive radioligand binding on intact COS-7 cells expressing the receptor, room temperature; unlabeled hPTH, radioligand not clearly stated (125I-rPTH or 125I-PTHrP)
Protocol: (§1) Peptides were synthesized by the MGH polymer core facility as described (Gardella et al., (1996)). Specific binding was calculated by subtracting radioligand binding in the presence of excess unlabeled peptide from the total binding. All points represent mean±S.E.M. of two to three replicates from two or more independent experiments.
(§2) Table 3. Binding and cAMP Signaling Properties of PTH and PTHrP Analogs on the zPTH1R and the zPTH3R Competitive binding and cAMP stimulation assays were performed at room temperature with intact COS-7 cells that expressed either the zPTH1R or the zPTH3R, as described in Materials and Methods. […] Values are the mean±SEM of at least three independent transfections. ND, not determined.

[2] = target: T2, zebrafish PTH1R receptor, clone …; assay: as above
Protocol: as §1, §2

[3] = target: T3, zebrafish PTH3R receptor, transiently …; assay: as above
Protocol: as §1, §2

[4] = target: T1, zebrafish PTH1R receptor, clone …; assay: cell-based or functional assay
[5] = target: T2, zebrafish PTH1R receptor, clone …; assay: cell-based or functional assay
[6] = target: T3, zebrafish PTH3R receptor, transiently …; assay: cell-based or functional assay
[7] = target: T1, zebrafish PTH1R receptor, clone …; assay: cell-based or functional assay
[8] = target: T1, zebrafish PTH1R receptor, clone …; assay: radioligand binding on COS-7 cells expressing the receptor
Protocol: (§3) Plasmid DNAs encoding the two full length zPTH1Rs (#25 and #29) and the zPTH3R were transiently expressed in COS-7 cells. COS-7 African green monkey kidney cells (approximately 200,000 cells/well in a 24-well plate) were cultured and transfected with plasmid DNA (200 ng/well) as described (Rubin et al., (1998)). After transfection, cells were cultured for 72 hrs at 37° with daily exchanges of medium, followed by an additional 24 hrs at 33° (Gardella et al., (1997)) until they were functionally evaluated after 96 hrs.
as §1

[9] = target: T2, zebrafish PTH1R receptor, clone …; assay: as above
Protocol: as §3, §1

[10] = target: T3, zebrafish PTH3R receptor, transiently …; assay: as above
Protocol: as §3, §1

Row | IC50 [1] [nM] | IC50 [2] [nM] | IC50 [3] [nM] | cAMP EC50 [4] [nM] | cAMP Maximum [4] [pmol/well] | cAMP EC50 [5] [nM] | cAMP Maximum [5] [pmol/well] | cAMP EC50 [6] [nM] | cAMP Maximum [6] [pmol/well] | IP accumulation (total inositol phosphates, 10^-6 M ligand) [7] [fold] | binding result [8] | binding result [9] | binding result [10] | Binder
1 | ~3 | ~3 | ~100 | 0.8 | 106 | ~3 | 90.4 | 5.98 | 227 | 2 | – | – | – | SVSEIQLMHNLGKHLNSMERVEWLRKKLQDVHNY-NH2 (Synthetic analog of human PTH(1-34) with Tyr at 34) [[Tyr34]hPTH(1-34)amide]
2 | – | – | – | – | – | – | – | – | – | – | binds | binds | binds | AVSEIQLXHNLGKHLASVERXQWLRKKLQDVHNY (Nle at 8 and 21; C-terminal amide; 125I-labeled, Synthetic analog of rat PTH(1-34), used as radioligand) [125I-labeled [Nle8,21,Tyr34]rPTH-(1-34)amide]
